Results reported in the supplement of paper PMC7125110.
± gives the standard error. Variants at the floor of the assay were thinned out.

B1: glmS ribozyme (parent)
chain: AUAAAAGCGCCAGAACUACAGAAAUGUAGUUGACGAGGAGGAGGUUUAUCGAAUUUUCGGCGGAUGCCUCCAAA

How the values were obtained:
Details in all cases: with glucosamine-6-phosphate
glucosamine-6-phosphate [1] = variants of: B1; experiment: self-cleavage kobs at 640 uM GlcN6P; higher = faster cleavage; RNA array
Method in brief: (§1)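 Sequenced MiSeq chips were the platform: E. coli RNA polymerase transcribed barcoded ribozyme variants on them in situ, and a hybridised Cy3 probe tracked these at 37 °C. After glucosamine-6-phosphate (40 μM to 10 mM) in HEPES/KCl/Mg(OAc)2 buffer was flowed in, tiles were imaged over ~14 h. Signals normalised to baseline and to non-cleaving reference variants were reduced to per-tile medians and fit to one- or two-exponential decays to obtain kobs. kcat and KM were derived through weighted Michaelis–Menten fits across concentrations.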

glucosamine-6-phosphate [2] = variants of: B1; experiment: self-cleavage kobs at 2500 uM GlcN6P; higher = faster cleavage; RNA array
Method in brief: as §1

glucosamine-6-phosphate [3] = variants of: B1; experiment: self-cleavage kobs at 10000 uM GlcN6P; higher = faster cleavage; RNA array
Method in brief: as §1

Variant | self-cleavage kobs at 640 uM GlcN6P (glucosamine-6-phosphate [1]) [s⁻¹] | self-cleavage kobs at 2500 uM GlcN6P (glucosamine-6-phosphate [2]) [s⁻¹] | self-cleavage kobs at 10000 uM GlcN6P (glucosamine-6-phosphate [3]) [s⁻¹]
G13U U56C A64U | < 1e-05 | < 1e-05 | < 1e-05
G13U U55G U56C | 7.76e-05 ± 2.4e-05 | 0.000112 ± 2.5e-05 | 
A14U A36G U47A | < 1e-05 | < 1e-05 | 
A14G U31G C50G | 0.000132 ± 3.6e-05 |  | 
A12G A48C A52U | < 1e-05 | < 1e-05 | 
G13U U56G C70G | 6.47e-05 ± 3.1e-05 | 4.09e-05 ± 1.9e-05 | 
A14C G40U C67U | < 1e-05 |  | 
A12G G43C G51U G63A U65C C68A | < 1e-05 | < 1e-05 | 
A15U U31A C34A | < 1e-05 | < 1e-05 | 
A14G G35A C71G | < 1e-05 |  | 
C11U A33C U55G C58U | < 1e-05 |  | 
C11G U55G G59C | 0.00067 ± 0.00021 |  | 
C11U U30A C34U A36G U69A | 0.000685 ± 0.00016 |  | 
C11U G38C G51U U65A | < 1e-05 |  | 
A12G U30G G43C U46G | < 1e-05 |  | 
C11U A12C C70G | 0.000165 ± 6.8e-05 |  | 
A15G A48U C50U G60A C68G | 0.000775 ± 0.00022 |  | 
G13A U45C G66A | 0.000124 ± 3e-05 | 9.89e-05 ± 2.4e-05 | 0.000343 ± 0.00011
A14G A42G G59C | < 1e-05 |  | 
A12G G44U C70G | < 1e-05 | < 1e-05 | 
A15G G44C G59U | < 1e-05 | < 1e-05 | 
C11U G32C A36G | < 1e-05 | < 1e-05 | < 1e-05

Variant | self-cleavage kobs at 640 uM GlcN6P (glucosamine-6-phosphate [1]) [s⁻¹] | self-cleavage kobs at 2500 uM GlcN6P (glucosamine-6-phosphate [2]) [s⁻¹] | self-cleavage kobs at 10000 uM GlcN6P (glucosamine-6-phosphate [3]) [s⁻¹]
G13U U30G A48C | < 1e-05 |  | < 1e-05
A12G G59C A64U | < 1e-05 |  | 
A14G G21U U31G G38U U57C | < 1e-05 | < 1e-05 | 
C11G G60U A64U | < 1e-05 | < 1e-05 | 
A12U A14G U30G A33G G66A | < 1e-05 | < 1e-05 | 
A12U U31A C34U G37C C70U | < 1e-05 |  | 
A12G G43C A53G | < 1e-05 | < 1e-05 | 
A14C A42U A64U | < 1e-05 | < 1e-05 | 
A12G A36G G40A U54G | < 1e-05 |  | 
A14G A15U A48U U69C | 6.32e-05 ± 2.6e-05 |  | 7.49e-05 ± 2e-05
G13C G44C G60A | < 1e-05 |  | 
A14U A15U C68U | 8.97e-05 ± 2.4e-05 | 0.000111 ± 3.2e-05 | 
G13C A48C C68G | < 1e-05 |  | 
A12G C50G C71G | 0.000415 ± 0.00014 | 0.000636 ± 0.00027 | 
A14U C58A C70A | 7.42e-05 ± 2.4e-05 |  | 
A12C U47C U65C | < 1e-05 |  | 
A12C U30C A39U | 0.000221 ± 4.3e-05 | 0.000452 ± 0.00012 | 
C11U A15C A33G G44U U49C A64C C70U | < 1e-05 | < 1e-05 | 
A15C G37C C70U | < 1e-05 |  | 
A14U G44U U54A G59C C68U | < 1e-05 | < 1e-05 | 
A15U U45A A53C | 0.000941 ± 0.00022 |  | 
C11U G37A U57G G63A | < 1e-05 |  | 

Variant | self-cleavage kobs at 640 uM GlcN6P (glucosamine-6-phosphate [1]) [s⁻¹] | self-cleavage kobs at 2500 uM GlcN6P (glucosamine-6-phosphate [2]) [s⁻¹] | self-cleavage kobs at 10000 uM GlcN6P (glucosamine-6-phosphate [3]) [s⁻¹]
A14G G35A G43A C61U | < 1e-05 |  | 
G13C G40C A42C | < 1e-05 | < 1e-05 | 
G13U U30G G35C | < 1e-05 | < 1e-05 | < 1e-05
G13U C34G U45C U47A | < 1e-05 | < 1e-05 | 
A12G C16U U49A | < 1e-05 |  | 
A15G G51U G63U C68G | 9.97e-05 ± 4.5e-05 | 0.000286 ± 0.00011 | 
C16A C34G C68G | 0.000145 ± 4.7e-05 | 0.000193 ± 6.5e-05 | 4.24e-05 ± 2e-05
A14G C16A G62C | < 1e-05 |  | 
G13U A14G G37A U45A | 9.84e-05 ± 2.1e-05 | 0.000193 ± 3.6e-05 | 
A14G C34U U54G C58G U69G | 0.000551 ± 0.0002 |  | 
A14U A33C U57C | 0.0103 ± 0.004 |  | 
C11U G44U C70G | < 1e-05 |  | 
A12U U30C A53C | 0.000316 ± 0.0001 | 0.000389 ± 0.00012 | 0.00132 ± 0.00056
G13A C16G G29U G37A G40U | < 1e-05 |  | 
A15G A53C C68U | 4.28e-05 ± 2e-05 | 0.000114 ± 3.9e-05 | 
A15U G40U U55A U56A | 5.38e-05 ± 1.6e-05 |  | 
G13C C50A | < 1e-05 |  | < 1e-05
G13A A39U U55C | 4.33e-05 ± 1.4e-05 | 0.000128 ± 2.9e-05 | 
A12C U46C C67G | 6.73e-05 ± 1.7e-05 | 0.000179 ± 5.3e-05 | 
A14U C16A G29A | 8.7e-05 ± 2.4e-05 |  | 
